Measured values: patent US20260275311, “CRISPR NUCLEASE POLYPEPTIDES AND GENE EDITING SYSTEMS COMPRISING SUCH” (ARBOR BIOTECHNOLOGIES, INC., published 2026)
Changes are numbered by the printed parent chain.

T1: Nuclease M L92R L92R
T1 sequence: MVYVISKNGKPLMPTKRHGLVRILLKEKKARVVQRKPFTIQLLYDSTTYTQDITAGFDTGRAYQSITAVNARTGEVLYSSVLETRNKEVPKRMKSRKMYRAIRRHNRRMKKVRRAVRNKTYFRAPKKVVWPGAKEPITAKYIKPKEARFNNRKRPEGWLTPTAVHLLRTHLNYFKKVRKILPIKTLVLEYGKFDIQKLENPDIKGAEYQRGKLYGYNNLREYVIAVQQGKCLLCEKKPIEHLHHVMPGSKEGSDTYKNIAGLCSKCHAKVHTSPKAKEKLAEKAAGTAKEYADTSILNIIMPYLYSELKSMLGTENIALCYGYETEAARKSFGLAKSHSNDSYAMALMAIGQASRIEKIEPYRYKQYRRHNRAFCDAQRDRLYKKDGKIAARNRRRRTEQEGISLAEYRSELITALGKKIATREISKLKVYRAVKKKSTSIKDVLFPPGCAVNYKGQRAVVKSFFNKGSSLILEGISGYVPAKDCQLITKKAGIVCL

T2: Nuclease M E88R E88R
T2 sequence: T1 sequence with E88R, R92L

T3: Nuclease M E401R E401R
T3 sequence: T1 sequence with R92L, E401R

T4: Nuclease K D582R (D582R)
T4 chain: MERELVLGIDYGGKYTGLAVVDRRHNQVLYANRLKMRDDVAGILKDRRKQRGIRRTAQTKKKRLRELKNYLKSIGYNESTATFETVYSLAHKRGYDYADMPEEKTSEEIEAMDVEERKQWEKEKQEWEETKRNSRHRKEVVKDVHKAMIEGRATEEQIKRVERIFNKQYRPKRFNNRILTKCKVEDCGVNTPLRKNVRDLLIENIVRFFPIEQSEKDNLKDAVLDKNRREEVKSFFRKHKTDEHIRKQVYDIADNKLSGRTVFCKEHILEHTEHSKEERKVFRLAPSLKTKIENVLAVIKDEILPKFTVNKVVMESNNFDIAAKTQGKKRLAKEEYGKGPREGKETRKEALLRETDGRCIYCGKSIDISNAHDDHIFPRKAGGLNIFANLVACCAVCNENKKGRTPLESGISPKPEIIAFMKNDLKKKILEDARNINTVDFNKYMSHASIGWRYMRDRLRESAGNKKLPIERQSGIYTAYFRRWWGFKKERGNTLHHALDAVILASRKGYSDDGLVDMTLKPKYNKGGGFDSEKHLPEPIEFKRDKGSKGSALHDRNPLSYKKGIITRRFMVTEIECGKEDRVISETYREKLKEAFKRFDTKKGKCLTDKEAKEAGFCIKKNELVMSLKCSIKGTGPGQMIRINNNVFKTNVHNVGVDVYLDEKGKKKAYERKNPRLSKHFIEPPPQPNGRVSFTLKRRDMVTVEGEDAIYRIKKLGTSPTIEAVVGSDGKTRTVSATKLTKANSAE

T5: Nuclease K G42R (G42R)
T5 chain: T4 chain with G42R, R582D

B1: Nuclease K EMX1-T7 guide ; EMX1-T7 target (ssRNA ; dsDNA)
RNA: CUUUAGCAAGGGACUAUUCAGUUACAGUUAAGGCUCUGAAAAGAGCCUUAAUUGUAAAACGCCUAUACAGUGAAGGGAUAUACGCUUGGGUUUGUCCAGCCUGAGCCUCUAUGCCAGAAAUGGCGCCUUCAUCGUGGGUUAGGACAUUUAAAUUUAAAAACUAUUCAGCACUGUUUGCUCUUGUCAGCUUGGUGGCAGA
DNA 1: CTTTAGCAAGGGACTATTCA
DNA 2: TGAATAGTCCCTTGCTAAAG
B2: Nuclease K AAVS1-T3 guide ; AAVS1-T3 target (ssRNA ; dsDNA)
RNA: UUGUGAGAAUGGUGCGUCCUGUUACAGUUAAGGCUCUGAAAAGAGCCUUAAUUGUAAAACGCCUAUACAGUGAAGGGAUAUACGCUUGGGUUUGUCCAGCCUGAGCCUCUAUGCCAGAAAUGGCGCCUUCAUCGUGGGUUAGGACAUUUAAAUUUAAAAACUAUUCAGCACUGUUUGCUCUUGUCAGCUUGGUGGCAGA
DNA 1: TTGTGAGAATGGTGCGTCCT
DNA 2: AGGACGCACCATTCTCACAA

Tests used:
Nuclease M L92R L92R = tested on: T1, Nuclease M L92R L92R; experiment: cell_activity; conditions: PAM TTAAA; HEK293T
Nuclease M E88R E88R = tested on: T2, Nuclease M E88R E88R; experiment: cell_activity; conditions: PAM TTAAA; HEK293T
Nuclease M E401R E401R = tested on: T3, Nuclease M E401R E401R; experiment: cell_activity; conditions: PAM TTAAA; HEK293T
Nuclease K D582R = target: T4, Nuclease K D582R; experiment: cell_activity; PAM NGG; HEK293T; conditions: tags: N- and C-terminal NLS
Nuclease K G42R = target: T5, Nuclease K G42R; experiment: cell_activity; PAM NGG; HEK293T; conditions: tags: N- and C-terminal NLS

Molecule | binding signal (fold vs Nuclease M) (Nuclease M L92R L92R) | binding signal (fold vs Nuclease M) (Nuclease M E88R E88R) | binding signal (fold vs Nuclease M) (Nuclease M E401R E401R) | binding signal (Nuclease K D582R) | binding signal (Nuclease K G42R)
GAGCCUGGUCCAUGGAGAGUGUCAACUACCCCCGUCUAAAGACGGAGGCAUGAGGUUUCGUAACCAAGUGUUGUACCUGCGGGUACAGUAGUUGAACAGGCGGCGAUGCGGCUGGGCACUCCAGGAUGCCACUCCCAGUCCCGGACACUGCCGACGAGCCGCAUCAAGCCGGGGGAGACCAACCGGCUAACGAUAGCCGAGCAAUUACCUAAAAAGAGGUGCAAAGGAAAUGGUAU / GAGCCTGGTCCATGGAGAGT / ACTCTCCATGGACCAGGCTC [Nuclease M VEGFA-T5 guide ; Nuclease M VEGFA-T5 target] | 1.81 | 2.09 | 1.77 |  | 
B1 |  |  |  | 31.8 fold vs Nuclease K | 5.3 fold vs Nuclease K
B2 |  |  |  | 3.68 fold vs Nuclease K | 3.94 fold vs Nuclease K
